Experiments:
[1] = target: T1, β isoform of PP1c released from rabbit skeletal muscle PP1G (rabbit, UniProt P62143 2-327); test: cell-based or functional assay
[2] = target: T2, myosin from chicken gizzard, dephosphorylated form (chicken, UniProt P10587 2-1979; P02612 2-172; P02607 2-151); test: co-sedimentation with myosin, immunoblot
T2 construct: mature; Native protein pelleted by centrifugation; 1 µM in terms of heavy chains; also called myosin dimer
Method: (A); PP1_M, $M110$-(M1-S477) and GST-$M110$-(M377-K976), each at 30 nM were incubated for 15 min at 0° C. with 1 μM myosin and centrifuged. The supernatants (S), resuspended pellets (P) and the suspension before centrifugation (T, total) were electrophoresed on 12% SDS/polyacrylamide gels, transferred to nitrocellulose and immunoblotted with antibodies raised against the PP1_M holoenzyme. No protein was pelleted in the absence of myosin (not shown). The positions of the marker proteins myosin heavy chain (200 kDa), glycogen phosphorylase (97 kDa), bovine serum albumin (66 kDa), ovalbumin (43 kDa), carbonic anhydrase (29 kDa) and soybean trypsin inhibitor (20 kDa) are indicated. […] A small amount of $M110$-(R714-I1004) pelleted in the absence of myosin. […] No other protein was pelleted in the absence of myosin.
Myosin binding assays. Myosin (0.5 mg/ml, 1 µM in terms of myosin heavy chains) in 10 mM Hepes pH 7.5, 50 mM KCl, 5 mM MgCl2, 0.1% (by vol) 2-mercaptoethanol, was mixed with PP1_M, M$21$ subunit, or fragments of the M$110$ and M$21$ subunits, at the concentrations indicated in figure legends. After incubation for 15 min at 0° C., the solutions were centrifuged for 2 min at 13,000×g, the supernatants removed, and the pellets washed twice in 10 mM Hepes pH 7.5, 50 mM KCl, 5 mM MgCl2, 0.1% (by vol) 2-mercaptoethanol before resuspension in 50 mM Tris-HCl pH 7.5, 0.1 mM EGTA, 0.03% (by mass) Brij 35, 0.6 M NaCl, 0.1% (by vol) 2-mercaptoethanol. Aliquots of the supernatant, the resuspended pellet and the suspension before centrifugation were either assayed for myosin P-light chain phosphatase activity or denatured in SDS and analysed by SDS/polyacrylamide gel electrophoresis.

[3] = target: PP1GL, glycogen-associated form of PP1 in rat hepatic glycogen-protein particles (rat); test: cell-based or functional assay
[4] = target: T1, β isoform of PP1c released from rabbit …; test: phosphatase assays and changed crystal form of PP1c
[5] = target: T2, myosin from chicken gizzard, …; test: co-sedimentation with myosin

T2 sequence (P10587 2-1979, chain 1 of 3): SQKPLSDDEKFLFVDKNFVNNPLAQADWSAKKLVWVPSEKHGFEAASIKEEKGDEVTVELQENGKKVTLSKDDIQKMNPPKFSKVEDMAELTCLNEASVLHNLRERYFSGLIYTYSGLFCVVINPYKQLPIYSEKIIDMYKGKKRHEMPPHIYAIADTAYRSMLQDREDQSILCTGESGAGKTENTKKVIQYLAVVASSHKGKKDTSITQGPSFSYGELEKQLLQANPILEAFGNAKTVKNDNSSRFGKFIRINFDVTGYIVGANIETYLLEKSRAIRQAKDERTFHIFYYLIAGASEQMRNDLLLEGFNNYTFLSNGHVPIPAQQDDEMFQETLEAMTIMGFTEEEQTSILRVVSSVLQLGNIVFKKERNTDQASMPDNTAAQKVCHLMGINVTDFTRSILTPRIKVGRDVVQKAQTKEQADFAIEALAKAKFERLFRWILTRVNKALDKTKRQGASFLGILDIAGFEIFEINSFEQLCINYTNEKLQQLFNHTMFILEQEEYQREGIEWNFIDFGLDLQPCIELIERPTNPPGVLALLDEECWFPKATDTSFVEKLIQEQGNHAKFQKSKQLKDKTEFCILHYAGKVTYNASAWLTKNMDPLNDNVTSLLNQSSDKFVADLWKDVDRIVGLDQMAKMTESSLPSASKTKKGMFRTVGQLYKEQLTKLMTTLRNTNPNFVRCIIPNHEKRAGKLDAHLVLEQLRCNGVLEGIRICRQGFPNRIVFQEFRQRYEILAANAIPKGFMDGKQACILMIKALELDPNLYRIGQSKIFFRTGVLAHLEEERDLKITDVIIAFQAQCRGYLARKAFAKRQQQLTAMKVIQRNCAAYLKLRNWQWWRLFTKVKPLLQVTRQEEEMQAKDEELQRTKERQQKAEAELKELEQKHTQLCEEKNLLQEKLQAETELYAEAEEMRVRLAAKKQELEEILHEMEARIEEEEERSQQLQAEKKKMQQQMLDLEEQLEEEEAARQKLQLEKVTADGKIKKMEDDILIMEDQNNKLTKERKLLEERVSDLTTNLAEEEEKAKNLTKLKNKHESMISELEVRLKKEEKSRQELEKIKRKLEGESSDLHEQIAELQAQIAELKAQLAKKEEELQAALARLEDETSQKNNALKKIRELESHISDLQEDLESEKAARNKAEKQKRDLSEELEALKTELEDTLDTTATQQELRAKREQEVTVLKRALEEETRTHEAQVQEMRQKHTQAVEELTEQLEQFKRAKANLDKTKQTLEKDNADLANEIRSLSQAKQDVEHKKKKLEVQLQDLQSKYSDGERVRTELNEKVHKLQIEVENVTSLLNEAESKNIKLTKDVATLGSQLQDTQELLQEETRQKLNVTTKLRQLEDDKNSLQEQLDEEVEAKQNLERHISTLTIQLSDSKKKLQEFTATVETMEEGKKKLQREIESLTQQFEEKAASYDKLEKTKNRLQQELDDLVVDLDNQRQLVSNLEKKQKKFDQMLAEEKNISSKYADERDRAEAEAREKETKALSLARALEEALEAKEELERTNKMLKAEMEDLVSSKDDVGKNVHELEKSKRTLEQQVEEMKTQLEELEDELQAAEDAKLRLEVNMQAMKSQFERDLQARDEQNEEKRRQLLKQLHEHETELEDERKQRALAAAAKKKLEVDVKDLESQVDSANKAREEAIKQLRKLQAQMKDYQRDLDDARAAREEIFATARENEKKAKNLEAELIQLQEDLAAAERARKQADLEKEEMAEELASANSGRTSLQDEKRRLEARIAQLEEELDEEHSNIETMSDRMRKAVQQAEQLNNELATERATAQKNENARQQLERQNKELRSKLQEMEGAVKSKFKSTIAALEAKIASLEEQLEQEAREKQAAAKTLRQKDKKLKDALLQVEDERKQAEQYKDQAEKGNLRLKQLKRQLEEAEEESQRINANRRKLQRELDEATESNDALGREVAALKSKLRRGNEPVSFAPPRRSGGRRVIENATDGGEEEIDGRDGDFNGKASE
T2 sequence (P02612 2-172, chain 2 of 3): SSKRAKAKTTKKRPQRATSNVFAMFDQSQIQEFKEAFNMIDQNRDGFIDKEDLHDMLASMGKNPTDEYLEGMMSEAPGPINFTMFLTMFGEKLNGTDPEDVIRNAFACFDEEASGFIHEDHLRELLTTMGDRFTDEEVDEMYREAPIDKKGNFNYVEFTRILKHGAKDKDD
T2 sequence (P02607 2-151, chain 3 of 3): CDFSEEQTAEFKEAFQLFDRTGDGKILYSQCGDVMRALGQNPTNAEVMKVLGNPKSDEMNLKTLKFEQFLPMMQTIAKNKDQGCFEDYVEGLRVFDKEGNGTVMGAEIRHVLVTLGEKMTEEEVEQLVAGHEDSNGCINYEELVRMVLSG
T1 sequence (P62143 2-327): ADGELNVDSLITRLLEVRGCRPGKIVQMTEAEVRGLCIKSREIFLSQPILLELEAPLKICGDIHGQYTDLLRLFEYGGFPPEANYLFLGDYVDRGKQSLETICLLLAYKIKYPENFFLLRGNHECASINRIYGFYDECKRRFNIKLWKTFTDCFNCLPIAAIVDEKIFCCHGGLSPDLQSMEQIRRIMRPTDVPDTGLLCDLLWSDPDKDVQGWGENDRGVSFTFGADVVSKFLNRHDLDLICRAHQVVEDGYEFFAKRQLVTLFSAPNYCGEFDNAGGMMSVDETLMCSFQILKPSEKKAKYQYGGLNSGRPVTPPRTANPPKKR

For MKMADAKQKRNEQLKRWIGSETDLEPPVVKRQKTK [M110[M1-K35] synthetic peptide], the “effectiveness at activating the myosin light chain phosphatase activity of PP1c relative to M110[1-38]” value [1] was no less than 10000 fold.

B1: GST-M21 (other, not shown: a dimerising Fc or GST; small tags and cut ends)
chain: MSSLFTRSKEYTRSRKSQSDSPPSSPSPIAKTLRHERLSRLEAATTPATSDSYSDRASSRSSAYSRRENRLAALSSRAEEESNRDYKKLYESALSENQKLKSKLQEAQLELADIKSKLEKAAQQKHEKTSDRSSMLEMEKREKRALERKLSEMEEEMKILTELKSDNQRLKDENGALIRVISKLSK
notes: also called undegraded GST-M21 (47 kDa)
B1: binds [2].

With MKMADAKQKRNEQLKRWIGSETDLEPPVVKRQKTKVKF [M110-(M1-F38) synthetic peptide] the “concentration for half maximal activation relative to M110-(M1-E309)” value [1] was no less than 100 fold, the “maximal activation of the myosin light chain phosphatase activity of PP1c” value [1] was 3 fold and the “phosphorylase phosphatase activity of PP1GL at 10 µM peptide” value [3] was 3.5 fold.

GRRVSFADNFGFNLVSVK (also called peptide 63-80 of GM) [GM-(G63-K80) synthetic peptide]: binds [4].

B2: M110-(M1-A150), released from GST with thrombin (other)
chain: GSPGMKMADAKQKRNEQLKRWIGSETDLEPPVVKRQKTKVKFDDGAVFLAACSSGDTDEVLKLLHRGADINYANVDGLTALHQACIDDNVDMVKFLVENGANINQPDNEGWIPLHAAASCGYLDIAEFLIGQGAHVGAVNSEGDTPLDIAEEEA
With B2 the “concentration needed to modify the specificity of PP1, relative to M110-(M1-E309)” value [1] was 10 fold.

B3: GM-(G63-N75) synthetic peptide (peptide)
peptide: GRRVSFADNFGFN
notes: 13-residue peptide co-crystallised with PP1γ1; also called GM[63-75]; GM peptide
B3: binds [4].

B4: M110-(M1-S477), released from GST with thrombin (other)
chain: GSPGMKMADAKQKRNEQLKRWIGSETDLEPPVVKRQKTKVKFDDGAVFLAACSSGDTDEVLKLLHRGADINYANVDGLTALHQACIDDNVDMVKFLVENGANINQPDNEGWIPLHAAASCGYLDIAEFLIGQGAHVGAVNSEGDTPLDIAEEEAMEELLQNEVNRQGVDIEAARKEEERIMLRDARQWLNSGHISDVRHAKSGGTALHVAAAKGYTEVLKLLIQAGYDVNIKDYDGWTPLHAAAHWGKEEACRILVDNLCDMETVNKVGQTAFDVADEDILGYLEELQKKQNLLHSEKRDKKSPLIESTANMENNQPQKTFKNKETLIIEPEKNASRIESLEQEKADEEEEGKKDESSCSSEEDEEDDSESEAETDKTKPMASVTNAHTASTQAAPAAVTTPTLSSNQGTPTSPVKKFPTSTTKISPKEEERKDESPASWRLGLRKTGSYGALAEITASKEAQKEKDTAGVIRSASSPRLSSAANSISSLIHRD
B4: no binding (tested: 30 nM with 1 µM myosin) [2].

B5: M110-(K933-I1004), C-terminal 72 residues of the chicken gizzard M110 subunit, released from MBP with Factor Xa (other)
chain: KLYEQILAENEKLKAQLHDTNMELTDLKLQLEKTTQRQERFADRSLLEMEKRVSGKSQYLLGGKKSSRKKDI
notes: also called 8.5 kDa M110-(K933-I1004) fragment
B5: no binding (tested: 100 nM with 1 µM myosin) [2].

B6: GST-M110-(M1-S477) (other)
chain: MKMADAKQKRNEQLKRWIGSETDLEPPVVKRQKTKVKFDDGAVFLAACSSGDTDEVLKLLHRGADINYANVDGLTALHQACIDDNVDMVKFLVENGANINQPDNEGWIPLHAAASCGYLDIAEFLIGQGAHVGAVNSEGDTPLDIAEEEAMEELLQNEVNRQGVDIEAARKEEERIMLRDARQWLNSGHISDVRHAKSGGTALHVAAAKGYTEVLKLLIQAGYDVNIKDYDGWTPLHAAAHWGKEEACRILVDNLCDMETVNKVGQTAFDVADEDILGYLEELQKKQNLLHSEKRDKKSPLIESTANMENNQPQKTFKNKETLIIEPEKNASRIESLEQEKADEEEEGKKDESSCSSEEDEEDDSESEAETDKTKPMASVTNAHTASTQAAPAAVTTPTLSSNQGTPTSPVKKFPTSTTKISPKEEERKDESPASWRLGLRKTGSYGALAEITASKEAQKEKDTAGVIRSASSPRLSSAANSISSLIHRD
notes: not shown: glutathione-S-transferase of vector pGEX-KG with the vector linker (thrombin site)
B6: no binding [5].

From patent US6884600 (MEDICAL RESEARCH COUNCIL LONDON, dated 2005)
